Measured values reported in US20190256592A1 (GENAGON THERAPEUTICS, published 2019).
Values belong to the molecule of their own block, whether it stands above or below them.

Experiments:
[1] = target: Cleft Lip and Palate Transmembrane protein 1 (CLPTM1), human, native, in cells (human) (UniProt O96005); experiment: flow cytometry on permeabilised O-876 cells expressing native CLPTM1, 10x dilution series
[2] = target: Cleft Lip and Palate Transmembrane protein 1 (CLPTM1), human, native, in cells (human) (UniProt O96005); experiment: flow cytometry on permeabilised O-876 cells expressing native CLPTM1
[3] = target: T1, Cleft Lip and Palate Transmembrane protein 1 (CLPTM1), human, native, in cells (human, UniProt O96005 2-669); experiment: as above
T1 construct: Native CLPTM1 as expressed by cells; also called CLPTM1 receptor
T1 sequence: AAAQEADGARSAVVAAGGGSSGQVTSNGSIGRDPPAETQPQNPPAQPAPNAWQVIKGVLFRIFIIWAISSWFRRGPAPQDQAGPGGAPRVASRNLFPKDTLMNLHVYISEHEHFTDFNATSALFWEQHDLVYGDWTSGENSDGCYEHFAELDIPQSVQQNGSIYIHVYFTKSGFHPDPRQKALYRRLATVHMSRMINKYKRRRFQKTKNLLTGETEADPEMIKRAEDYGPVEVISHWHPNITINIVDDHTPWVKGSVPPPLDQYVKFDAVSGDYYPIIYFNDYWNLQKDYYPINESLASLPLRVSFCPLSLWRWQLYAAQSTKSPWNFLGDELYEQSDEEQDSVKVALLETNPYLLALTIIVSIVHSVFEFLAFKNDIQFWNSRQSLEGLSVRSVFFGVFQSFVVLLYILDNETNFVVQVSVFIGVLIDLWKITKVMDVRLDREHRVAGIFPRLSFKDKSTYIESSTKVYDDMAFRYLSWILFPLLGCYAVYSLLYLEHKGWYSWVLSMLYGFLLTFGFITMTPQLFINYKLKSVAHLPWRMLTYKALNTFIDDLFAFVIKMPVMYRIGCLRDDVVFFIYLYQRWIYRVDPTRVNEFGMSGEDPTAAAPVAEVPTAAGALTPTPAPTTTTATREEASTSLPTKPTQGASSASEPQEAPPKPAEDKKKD
Description: (§1) Affinity of antibodies was determined by finding the half-maximal binding on the native target in a flow cytometry assay. Since the native target is found inside most cells and rarely on the cell surface, the assay was performed using plasma membrane-permeabilized cells, an intra-cellular staining protocol. Using the native target is more applicable when evaluating and comparing various antibodies as it is the true antigen to be bound in a therapeutic setting in vivo. 0-876 cells were permeabilized with BD-fix and permeabilization buffer (554722 BD-Biosciences). Antibody at various concentrations was incubated with cells for 30 minutes at +4 C, then washed twice with wash buffer (BD-Biosciences 554723). Secondary antibodies a-mouse IgG-PE (Molecular Probes) was used for mouse monoclonal antibodies according to manufacturer's instructions and a-rabbit-IgG-PE (Molecular Probes) for rabbit monoclonal antibody (Abcam ERP8800). Three washes followed and fluorescence intensity in cells was quantified by FACS Cantoll in PBS with cells in 2% FCS buffer.
(§2) The assay was performed on 0-876 cancer cell line.

[4] = target: T1, Cleft Lip and Palate Transmembrane …; experiment: flow cytometry on permeabilised O-876 cells expressing native CLPTM1; Kd defined by half maximal binding
Description: as §1, §2

[5] = target: T2, …; experiment: ELISA: biotinylated CLPTM1 peptide on streptavidin plate, GDF15 at 100 ng/ml, detected with goat anti-GDF15 and anti-goat-HRP
T2 sequence (peptide, biotinylated; C-terminal glycine not from CLPTM1): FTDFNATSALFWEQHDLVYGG

[6] = target: T3, …; experiment: as above; remark: listed apart in the source
T3 sequence (peptide, biotinylated; C-terminal glycine not from CLPTM1): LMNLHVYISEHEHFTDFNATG

[7] = target: T4, …; experiment: as above; remark: listed apart in the source
T4 sequence (peptide, biotinylated; C-terminal glycine not from CLPTM1): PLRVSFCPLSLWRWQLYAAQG

[8] = target: T5, …; experiment: as above; remark: listed apart in the source
T5 sequence (peptide, biotinylated; C-terminal glycine not from CLPTM1): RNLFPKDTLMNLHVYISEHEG

[9] = target: T6, …; experiment: as above; remark: listed apart in the source
T6 sequence (peptide, biotinylated; C-terminal glycine not from CLPTM1): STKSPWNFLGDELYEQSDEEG

[10] = target: T7, AAAQEADGARSAVVAAGGGSG (biotinylated; C-terminal glycine not from CLPTM1); experiment: as above
T7 construct: also called G1
T7 peptide: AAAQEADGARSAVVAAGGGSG
Description: (§3) Biotinylated synthetic peptide fragments from CLPTM1 (JPT peptides, Germany) were immobilized in a streptavidin 96 well plate (#15500 Pierce) at 1 μM in PBS overnight at +4° C. Plate was washed 4 times in 300 μl PBS with 0.05% Tween-20 (wash buffer). The plate was blocked with PBS 1% BSA and 0.05% Tween-20 (blocking buffer) for 1.5 hours at room temperature then washed 4 times in wash buffer. GDF15 ligand (Abcam) was added in blocking buffer at 100 ng/ml and incubated at room temperature for 2 hours. The plate was then washed 8 times in 300 μl wash buffer with 2×NaCl. A GDF15 antibody as added at 1 μg/ml (R&D systems goat polyclonal) and incubated in block buffer for 1 hour at room temperature followed by washing with 4×300 μl wash buffer. HAF017 anti-goat-HRP antibody was added and incubated for 1 hour in blocking buffer followed by a wash. TMB substrate was added and stopped after 15 minutes with H2SO4. OD 450-620 was measured in an ELISA reader.
(§4) Polypeptides having sequences set forth in SEQ ID NOs:10-33 were assessed for binding to GDF15 (corresponding to the polypeptides indicated from left to right in FIG. 2 and shown in Table 1). These proteins were synthesised with a C-terminal glycine residue that is not present in the corresponding sequences from CLPTM1.

[11] = target: T8, MIKRAEDYGPVEVISHWHPNG (biotinylated; C-terminal glycine not from CLPTM1); experiment: as above
T8 construct: also called G12
T8 peptide: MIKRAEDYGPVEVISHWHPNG
Description: as §3, §4

[12] = target: T9, NDYWNLQKDYYPINESLASLG (biotinylated; C-terminal glycine not from CLPTM1); experiment: as above
T9 construct: also called G15
T9 peptide: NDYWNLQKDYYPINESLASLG
Description: as §3, §4

[13] = target: T10, YEQSDEEQDSVKVALLETNPG (biotinylated; C-terminal glycine not from CLPTM1); experiment: as above
T10 construct: also called G18
T10 peptide: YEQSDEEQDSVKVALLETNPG
Description: as §3, §4

[14] = target: T11, LWRWQLYAAQSTKSPWNFLGG (biotinylated; C-terminal glycine not from CLPTM1); experiment: as above
T11 construct: also called G19
T11 peptide: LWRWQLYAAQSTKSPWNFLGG
Description: as §3, §4

[15] = target: T12, WQVIKGVLFRIFIIWAISSWG (biotinylated; C-terminal glycine not from CLPTM1); experiment: as above
T12 construct: also called G22
T12 peptide: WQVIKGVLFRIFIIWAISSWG
Description: as §3, §4

[16] = target: T13, SGQVTSNGSIGRDPPAETQPG (biotinylated; C-terminal glycine not from CLPTM1); experiment: as above
T13 construct: also called G2
T13 peptide: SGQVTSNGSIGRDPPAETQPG
Description: as §3, §4

[17] = target: T14, QNPPAQPAPNAWQVIKGVLFG (biotinylated; C-terminal glycine not from CLPTM1); experiment: as above
T14 construct: also called G3
T14 peptide: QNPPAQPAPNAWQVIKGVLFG
Description: as §3, §4

[18] = target: T15, RIFIIWAISSWFRRGPAPQDG (biotinylated; C-terminal glycine not from CLPTM1); experiment: as above
T15 construct: also called G4
T15 peptide: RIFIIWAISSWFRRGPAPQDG
Description: as §3, §4

[19] = target: T16, QAGPGGAPRVASRNLFPKDTG (biotinylated; C-terminal glycine not from CLPTM1); experiment: as above
T16 construct: also called G5
T16 peptide: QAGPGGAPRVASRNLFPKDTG
Description: as §3, §4

[20] = target: T17, SALFWEQHDLVYGDWTSGENG (biotinylated; C-terminal glycine not from CLPTM1); experiment: as above
T17 construct: also called G7
T17 peptide: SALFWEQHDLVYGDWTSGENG
Description: as §3, §4

[21] = target: T18, SDGCYEHFAELDIPQSVQQNG (biotinylated; C-terminal glycine not from CLPTM1); experiment: as above
T18 construct: also called G8
T18 peptide: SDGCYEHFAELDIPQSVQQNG
Description: as §3, §4

[22] = target: T19, RRRFQKTKNLLTGETEADPEG (biotinylated; C-terminal glycine not from CLPTM1); experiment: as above
T19 construct: also called G11
T19 peptide: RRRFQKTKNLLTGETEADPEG
Description: as §3, §4

[23] = target: T20, CLPTM1 peptide G9 (residues 162-181 with C-terminal glycine) (human, biotinylated (position not given)); experiment: as above
T20 construct: Biotinylated synthetic peptide on a streptavidin plate; The C-terminal glycine is not in CLPTM1
T20 peptide: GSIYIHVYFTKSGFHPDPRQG
Description: as §3, §4

[24] = target: T21, CLPTM1 peptide G10 (residues 182-201 with C-terminal glycine) (human, biotinylated (position not given)); experiment: as above
T21 construct: Biotinylated synthetic peptide on a streptavidin plate; The C-terminal glycine is not in CLPTM1
T21 peptide: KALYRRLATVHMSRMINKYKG
Description: as §3, §4

[25] = target: T22, CLPTM1 peptide G14 (residues 262-281 with C-terminal glycine) (human, biotinylated (position not given)); experiment: as above
T22 construct: Biotinylated synthetic peptide on a streptavidin plate; The C-terminal glycine is not in CLPTM1
T22 peptide: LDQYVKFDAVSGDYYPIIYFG
Description: as §3, §4

[26] = target: T23, CLPTM1 peptide G20 (residues 292-311 with C-terminal glycine) (human, biotinylated (position not given)); experiment: as above
T23 construct: Biotinylated synthetic peptide on a streptavidin plate; The C-terminal glycine is not in CLPTM1
T23 peptide: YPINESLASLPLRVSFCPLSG
Description: as §3, §4

[27] = target: T24, CLPTM1 peptide G21 (residues 273-292 with C-terminal glycine) (human, biotinylated (position not given)); experiment: as above
T24 construct: Biotinylated synthetic peptide on a streptavidin plate; The C-terminal glycine is not in CLPTM1
T24 peptide: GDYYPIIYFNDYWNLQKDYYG
Description: as §3, §4

Molecule: AbCam anti-CLPTM1 rabbit monoclonal antibody EPR8800 (RabMab)
percent of maximal binding at 1 µg/mL [2]: > 50%
percent of maximum binding at 0.1 µg/ml [1]: > 50%

B1: Mouse monoclonal anti-CLPTM1 antibody 7G12 (antibody, V domains shown)
VH: QVQLQQSGTELVRPGTSVKVSCKASGYAFTNYLIEWVKQRPGQGLEWIGVINPGSGGTRYNEKFKGKATLTADKSSTTAHMQLSSLTSDDSAVYCARWGGNYSGYAMDYWGQGTSVTVSS
VL: QIVLTQSPVIMSASPGEKVTITCSASSSVSYMHWFQQKPGTSPKLWIYSTSNLASGVPARFSGSGSGTSYSLTISRMEAEDAATYYCQQRSSYPPTFGAGTKL
notes: Mouse IgG1 heavy chain, kappa light chain; also called mAb 7G12; 7G12hyb
EC50 [3]: < 1 µg/mL
Kd [4]: < 1 nM

The remaining lines, values ahead:

percent of maximum binding at 1 µg/ml [1]: < 50%
Molecule: Santa Cruz mouse anti-human CLPTM1 monoclonal antibody (G-7) (sc-374619)

OD ELISA 450nm - 620nm [5]: 0.061 OD
OD ELISA 450nm - 620nm [6]: 0.058 OD
OD ELISA 450nm - 620nm [7]: 0.063 OD
OD ELISA 450nm - 620nm [8]: 0.055 OD
OD ELISA 450nm - 620nm [9]: 0.053 OD
OD ELISA 450nm - 620nm [10]: 0.022 OD
OD ELISA 450nm - 620nm [11]: 0.028 OD
OD ELISA 450nm - 620nm [12]: 0.038 OD
OD ELISA 450nm - 620nm [13]: 0.022 OD
OD ELISA 450nm - 620nm [14]: 0.033 OD
OD ELISA 450nm - 620nm [15]: 0.023 OD
OD ELISA 450nm - 620nm [16]: 0.009 OD
OD ELISA 450nm - 620nm [17]: 0.042 OD
OD ELISA 450nm - 620nm [18]: 0.026 OD
OD ELISA 450nm - 620nm [19]: 0.034 OD
OD ELISA 450nm - 620nm [20]: 0.034 OD
OD ELISA 450nm - 620nm [21]: 0.024 OD
OD ELISA 450nm - 620nm [22]: 0.021 OD
OD ELISA 450nm - 620nm [23]: 0.149 OD
OD ELISA 450nm - 620nm [24]: 0.197 OD
OD ELISA 450nm - 620nm [25]: 0.14 OD
OD ELISA 450nm - 620nm [26]: 0.22 OD
OD ELISA 450nm - 620nm [27]: 0.507 OD
B2: Growth and Differentiation Factor 15 (GDF15) (ligand, UniProt Q99988 197-308, looked up)
chain: ARNGDHCPLGPGRCCRLHTVRASLEDLGWADWVLSPREVQVTMCIGACPSQFRAANMHAQIKTSLHRLKPDTVPAPCCVPASYNPMVLIQKTDTGVSLQTYDDLLAKDCHCI
notes: Bought protein (Abcam); also called MIC-1; GDF15 ligand (Abcam)
